Experimental data taken from PMC5464773 (2017).
Like-named read-outs stand apart in the source and are kept apart here.

How the values were obtained:
Experiment in all cases: FP
[1] = target: T1, Myc-tagged Bcl-w (human, UniProt Q92843 1-193)
T1 chain: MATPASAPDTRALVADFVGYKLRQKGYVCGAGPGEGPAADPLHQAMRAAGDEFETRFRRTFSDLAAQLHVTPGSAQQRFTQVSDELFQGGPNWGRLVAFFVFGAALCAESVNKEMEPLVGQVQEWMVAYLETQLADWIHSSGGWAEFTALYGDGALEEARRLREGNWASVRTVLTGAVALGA

[2] = target: T2, Myc-tagged Bfl-1 (human, UniProt Q16548 1-175)
T2 chain: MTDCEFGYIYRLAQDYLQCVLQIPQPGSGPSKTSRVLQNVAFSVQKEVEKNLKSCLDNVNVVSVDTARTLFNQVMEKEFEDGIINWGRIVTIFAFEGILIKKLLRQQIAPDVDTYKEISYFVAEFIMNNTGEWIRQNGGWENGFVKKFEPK

[3] = target: T3, Myc-tagged Mcl-1 (human, UniProt Q07820 1-350)
T3 chain: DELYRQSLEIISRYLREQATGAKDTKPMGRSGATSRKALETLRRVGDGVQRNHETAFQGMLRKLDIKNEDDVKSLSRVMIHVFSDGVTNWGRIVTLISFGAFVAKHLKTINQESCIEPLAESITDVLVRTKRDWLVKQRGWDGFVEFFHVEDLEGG

[4] = target: Myc-tagged Bcl-xL (human, UniProt Q07817-1 1-233)
[5] = target: Myc-tagged Bcl-2 (human, UniProt P10415 1-239)
[6] = target: T2, Myc-tagged Bfl-1

Chain of Myc-tagged Bcl-2 (P10415 1-211): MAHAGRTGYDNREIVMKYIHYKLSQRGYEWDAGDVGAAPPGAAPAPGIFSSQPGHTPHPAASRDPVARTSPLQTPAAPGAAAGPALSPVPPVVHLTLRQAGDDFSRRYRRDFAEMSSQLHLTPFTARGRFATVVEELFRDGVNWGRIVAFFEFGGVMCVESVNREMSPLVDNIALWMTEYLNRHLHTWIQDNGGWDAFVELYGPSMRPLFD
Chain of Myc-tagged Bcl-xL (Q07817 1-209): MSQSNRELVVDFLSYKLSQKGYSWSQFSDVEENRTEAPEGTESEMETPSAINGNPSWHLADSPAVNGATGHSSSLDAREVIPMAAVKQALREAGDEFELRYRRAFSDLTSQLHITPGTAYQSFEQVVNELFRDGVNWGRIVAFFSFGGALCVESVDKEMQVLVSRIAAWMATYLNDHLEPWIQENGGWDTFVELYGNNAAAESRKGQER

For Ac-QWAREIGAQLRRMADDLNAQYER-NH2 [PUMA BH3 peptide (23 residues)], the Ki [1] was 3 nM, the Ki [2] was 4.8 nM and the Ki [3] was 2.4 nM.

With Ac-QWVREIAAGLRRAADDVNAQVER-NH2 (designed binder) [FS2] the Ki [4] was greater than 5000 nM, the Ki [5] was 2400 nM and the Ki [1] was greater than 5000 nM. For the same binder, the Ki [2] was 21 nM and the Ki [3] was 3200 nM.

Ac-QWIREIAAGLRRFADILNAQVER-NH2 (designed binder) [FS3] showed a Ki [4] of 320 nM, a Ki [5] of 2000 nM and a Ki [1] of 770 nM. For the same binder, the Ki [2] was 2.1 nM and the Ki [3] was 550 nM.

Ac-QWVREIAAGLRLAADNVNAQLER-NH2 (designed binder) [FS1] showed a Ki [4] of 2400 nM, a Ki [5] greater than 5000 nM and a Ki [1] greater than 5000 nM. It also gave a Ki [3] greater than 5000 nM.

In the case of Ac-QWVREIAAQLRRMADDLNAQYER-NH2 [PUMA/FS2 chimeric peptide with the larger residues of FS2 at positions 2a and 2e], the Ki [6] is reported as 2.1 nM.

In the case of Ac-QWAREIGAGLRRAADDVNAQVER-NH2 [PUMA/FS2 chimeric peptide with the smaller residues of FS2 at positions 2g, 3d, 4a and 4e], the Ki [6] is reported as 600 nM.
